For experiment [1], the target named is T1, PD-L1 (Fc Tag) (human, UniProt Q9NZQ7 19-239, limits assumed).
T1 construct: also called human PD-L1; not shown: Fc tag
The experiment is described as follows: competition ELISA, PD-L1 (Fc Tag) coated, human PD-1 at a fixed concentration as the competing ligand, hAAG5D8 titrated. The procedure:
(§1) The ability of hAAG5D8 to compete with PD-1 to bind to PD-L1 was tested by ELISA. PD-L1 (Fc Tag) was diluted to 1 μg/mL with a coating buffer (6 mM Na₂CO₃, 14 mM NaHCO₃), and then added 100 μL to each well followed by overnight incubation at 4° C. The plate was then washed with PBST, and added with 250 μL of a blocking solution (3% BSA/PBST) to each well to block for 2 h at 25° C. Afterwards, the plate was washed with PBST and added with 50 μL of human PD-1 at a concentration of 6 μg/mL as well as 50 μL of a gradiently diluted hAAG5D8 solution (at a concentration of 8000 ng/mL, 2000 ng/mL, 500 ng/mL, 250 ng/mL, 125 ng/mL, 62.5 ng/mL, 31.25 ng/mL, 6.25 ng/mL, or 1.25 ng/mL) to each well followed by mixing well and incubation at 25° C. for 2 h. Next, the plate was washed with PBST and added with 100 μL of an enzyme-labeled secondary antibody (goat anti-human IgG-Fc-HRP diluted 1:5000) to each well, followed by incubation at 25° C. for 1 h. Finally, color development was performed and values were read at 450 nm. A four-parameter equation was used for curve fitting to calculate the EC₅₀ value.
(§2) Results and conclusions: EC₅₀ value and the competitive binding curve of hAAG5D8 competitively binding to human PD-L1 are shown in Table 8 and FIG. 2, respectively.

Experiment [2] addresses T1, PD-L1 (Fc Tag). The experiment can be described thus: competition ELISA, PD-L1 (Fc Tag) coated, human PD-1 at 6 ug/mL as competitor, anti-human IgG-Fc-HRP detection. The protocol: as §1, §2
On the technique in general: ELISA stands for enzyme-linked immunosorbent assay.

Experiment [3] deals with T2, human PD-L1 (R&D company), immobilized on Ni-NTA probe (human, UniProt Q9NZQ7 19-239).
T2 construct: Bought protein; also called PD-L1 solution; not shown: His tag only implied by capture on the Ni-NTA probe
T2 sequence (Q9NZQ7 19-239): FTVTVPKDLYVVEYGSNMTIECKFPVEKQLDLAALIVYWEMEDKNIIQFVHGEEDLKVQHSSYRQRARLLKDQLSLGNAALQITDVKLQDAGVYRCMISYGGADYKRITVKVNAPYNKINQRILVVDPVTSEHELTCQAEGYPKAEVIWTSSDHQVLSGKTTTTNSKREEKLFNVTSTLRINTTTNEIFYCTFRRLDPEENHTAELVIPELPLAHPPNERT
The experiment is described as follows: BLI, PD-L1 immobilized on Ni-NTA probe, hAAG5D8 at 100, 50 and 25 nM in solution. The procedure: The affinity of hAAG5D8 to human PD-L1 was detected using biolayer interferometry (BLI). The wells in A-D columns 1, 3, and 5 of a black 96-well plate were added with a PBS solution as baseline 1, baseline 2 and a dissociation solution, respectively. The wells in column 2 were added with a PD-L1 solution (R&D company), in column 4 with a hAAG5D8 solution (The concentrations were as follows: 100 nM, 50 nM, 25 nM, and 0 nM), in column 10 with an imidazole solution, in column 11 with water, and in column 12 with a nickel sulfate solution. Ni-NTA probe (Fortebio) was employed in the experiment. First, the probe was dipped in A-D column 1 for 180 seconds to stabilize the baseline. The Ni-NTA probe was then dipped in A-D column 2 for 300 seconds to immobilize PD-L1 on the probe. The Ni-NTA probe was then dipped in A-D column 3 for 120 seconds to stabilize the baseline. The Ni-NTA probe was then dipped in A-D column 4 for 600 seconds to allow the binding of hAAG5D8 with a different concentration to the immobilized PD-L1 protein on the probe. The Ni-NTA probe was then dipped in A-D column 5 for 600 seconds to allow the antibody to dissociate spontaneously. Finally, the Ni-NTA probe was dipped in A-D columns 10, 11, and 12 successively to force the immobilized PD-L1 dissociating from the probe. […]

T1 sequence (Q9NZQ7 19-239 limits assumed): as the sequence (Q9NZQ7 19-239) above

B1: anti-PD-L1 humanized antibody hAAG5D8 (antibody, human IgG1, kappa, V domains shown)
VH: QVQLQESGPGLVKPSETLSLTCTVSGFSLSRYSVHWIRQPPGKGLEWLGMIWGVGTTDYNSALKSRLTISKDTSKNQFSLKLSSVTAADTAVYYCARNWGTADYFDYWGQGTTVTVSS
VL: DIVLTQSPASLAVSPGQRATITCRASKSVHTSGYSYMHWYQQKPGQPPKLLIYLASNLESGVPARFSGSGSGTDFTLTINPVEANDTANYYCQHSGELPYTFGGGTKVEIKR
notes: Humanized from murine mAAG5D8 on a human IgG1 framework; also called anti-PD-L1 antibody
The term EC50 denotes the concentration at which the effect is half-maximal. Low readings indicate greater potency, high ones weaker potency. In general, Kd refers to the equilibrium constant for the complex coming apart. Read a high Kd as lower affinity. Consider B1, for which the “IC50 (read off the curve)” value with PD-L1 (Fc Tag) [1] was ~0.1 µg/mL. Moreover, the EC50 with PD-L1 (Fc Tag) [2] came out at 0.716 nM. The affinity in experiment [3], expressed as Kd, was 0.0762 nM.

(Values after patent US20220177590A1 (REMEGEN, published 2022).)
